± gives the uncertainty stated by the source.
Assay: protein stability index of a GFP-peptide fusion (yeast GPS) (PSI 1-4); higher = more stable; sorted into four equal gates, so the index is relative within each strain
Summary of the method: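 Each library plasmid carries Cherry plus GFP with a tiled 17-residue yeast protein peptide fused downstream, and the pooled library was carried in yeast. Mid-log cultures in leucine-free medium were sorted into four equal gates by GFP/Cherry ratio. Reads from Illumina sequencing of PCR-amplified plasmids from each gate were assigned to strains by barcodes. Per peptide, the protein stability index was computed as the summed products of gate read frequency and gate number.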

Sequence	protein stability index (doa10∆)	protein stability index (pdr5∆)	protein stability index (san1∆)	protein stability index (ubr1∆)
RPTGGANMATVPSTTNV [MED6]	2.66 ± 0.062	2.93 ± 0.06	2.42 ± 0.17	2.91 ± 0.04
RQCFREKANDIGFNKFR [RPS29A]	3.32 ± 0.15	3.3 ± 0.13	3 ± 0.098	2.92 ± 0.098
RQELQMQRQQQGISGSQ [SNF2]	2.65 ± 0.049	2.95 ± 0.046	2.94 ± 0.042	2.9 ± 0.041
RQFLHELRRPGVDNLRR [RPO31]	1.27 ± 0.078	1.37 ± 0.097	1.25 ± 0.23	1.64 ± 0.093
RQLSPHTLMSFAGEAGD [PRE1]	1.69 ± 0.052	1.87 ± 0.057	1.83 ± 0.12	1.96 ± 0.041
RQQQQRSILQSLNPALQ [SWI1]	1.76 ± 0.051	1.92 ± 0.06	1.54 ± 0.084	1.89 ± 0.053
RRANFYKENEAMLRENI [SNF12]	3.29 ± 0.094	3.2 ± 0.14	3.33 ± 0.074	3.39 ± 0.11
RREVQIQLQEFLLSAMT [NSL1]	1.42 ± 0.052	1.68 ± 0.11	1.47 ± 0.12	1.68 ± 0.063
RRLHKVLRPFLLRRLKK [SNF2]	2.09 ± 0.078	2.53 ± 0.1	1.89 ± 0.12	2.53 ± 0.07
RRLLNLYNDNNKNNNNR [SWI1]	3.11 ± 0.12	2.86 ± 0.089	2.22 ± 0.16	2.99 ± 0.058
RRNRYKTYYGIHCLAVR [RPN7]	1.23 ± 0.05	1.38 ± 0.073	1.29 ± 0.13	1.17 ± 0.044
RRVKQLDDITDSNTTEI [SIR4]	3.27 ± 0.086	3.14 ± 0.072	2.83 ± 0.069	3 ± 0.065
RSGALIKFKKCDGDTVW [SSN2]	2.85 ± 0.053	2.9 ± 0.048	2.62 ± 0.048	2.71 ± 0.043
RSLCEVLVYDDKLEKVT [RPC34]	2.32 ± 0.09	2.62 ± 0.1	2.33 ± 0.1	2.84 ± 0.093
RSLDENRLEIKYHNDLI [SMC1]		3.2 ± 0.29	2.78 ± 0.26	3.14 ± 0.24
RSLGLQQVVCIFSYGPH [POP6]	1.51 ± 0.028	1.7 ± 0.037	1.57 ± 0.049	1.64 ± 0.026
RSMIEHARTAAVTHNLY [PUP2]	2.16 ± 0.13	2.98 ± 0.22	2.46 ± 0.13	2.67 ± 0.083
RSNQYQRGKMHGLKQLR [NUT2]	2.67 ± 0.1	2.91 ± 0.078	1.48 ± 0.28	1.74 ± 0.076
RSNTGALMRCSFEETVE [RPO21]	3 ± 0.074	3.02 ± 0.077	3.06 ± 0.061	3.01 ± 0.067
RSPLVTPMDESSYDLLF [SRP72]	2.71 ± 0.13	3.06 ± 0.1	3.29 ± 0.12	3.2 ± 0.08
RSQISEKDAKINKLMEK [SIR4]	3.13 ± 0.087	3.12 ± 0.11	3.17 ± 0.062	2.27 ± 0.047
RSRISSPHGLINLNVDD [SRB4]	2.47 ± 0.052	2.48 ± 0.061	2.61 ± 0.075	2.15 ± 0.043
RSSEEINSDNQNIILRS [RPN3]	3.03 ± 0.26	3.24 ± 0.19		3.2 ± 0.19
RSTMMKFLKIASLKHDN [RPN3]	2.18 ± 0.067	2.43 ± 0.072	2.86 ± 0.089	3.01 ± 0.057
RSTRIRTKSQVIEEDYD [IRR1]	2.89 ± 0.15	3.22 ± 0.082	3.42 ± 0.078	3.43 ± 0.11
RTPYLTSLKKIKDEIDD [SWI1]	2.86 ± 0.16	2.66 ± 0.091	2.21 ± 0.12	2.62 ± 0.079

Sequence	protein stability index (doa10∆)	protein stability index (pdr5∆)	protein stability index (san1∆)	protein stability index (ubr1∆)
RTQPWSIMPDLYFYRNP [RPS0B]	2.55 ± 0.051	2.85 ± 0.056	2.85 ± 0.043	2.6 ± 0.055
RVEPETFEIPQAHEIVI [SWI3]	2.53 ± 0.073	2.84 ± 0.08	2.54 ± 0.079	2.94 ± 0.05
RVGGGGTGRSGQGAFGN [RPL4A]	3.54 ± 0.13	3.52 ± 0.11	3.54 ± 0.066	3.34 ± 0.1
RVNKNAPAVELHGNAKK [FAS2]	2.74 ± 0.071	3.14 ± 0.07	3.2 ± 0.18	2.93 ± 0.058
RVRHEDVETVKREIQEA [RPC53]		3 ± 0.17		
RVVYLKHLEDNTLLISG [RPL6A]	2.63 ± 0.11	2.62 ± 0.093	1.81 ± 0.17	2.23 ± 0.059
RWKRFTIGAIFLNHAFD [CDC53]	2.54 ± 0.065	2 ± 0.069	2.18 ± 0.099	1.53 ± 0.048
RYANKRFRKAQCPIIER [RPS5]	2.34 ± 0.16	2.12 ± 0.14		1.5 ± 0.054
RYDSNSGGEREIQRTML [RPT2]	3.43 ± 0.12	3.62 ± 0.096	3.39 ± 0.12	3.38 ± 0.1
RYDYSDEVGRRSMLTVV [YCG1]	2.02 ± 0.067	1.73 ± 0.062	2.91 ± 0.094	1.97 ± 0.05
RYNVEKVKRLMDFLEED [NSL1]	2.08 ± 0.098	1.26 ± 0.16		2.25 ± 0.19
RYQHLEKITQISLLCKN [PCI8]	1.23 ± 0.066	1.5 ± 0.051	1.25 ± 0.11	1.22 ± 0.048
RYRVDLLNTDHTLDPSL [RPO21]	3.09 ± 0.072	2.95 ± 0.053	2.92 ± 0.05	2.9 ± 0.062
SAAATPSLNKTINGKVN [GAL11]	2.9 ± 0.06	3.14 ± 0.041	2.81 ± 0.042	3.01 ± 0.046
SAAKYKDMKLLRYYKNI [NUT1]	1.83 ± 0.059	2.2 ± 0.06	2.23 ± 0.079	1.99 ± 0.04
SADAPNPNNVNVQTQYR [RET1]	2.92 ± 0.09	2.84 ± 0.045	2.77 ± 0.07	2.79 ± 0.05
SADPSLLIDQFSPVISQ [SWI1]	2.85 ± 0.12	3.08 ± 0.1	2.51 ± 0.18	2.96 ± 0.067
SAEDEENIIQRLQAANS [CDC53]	3.15 ± 0.081	3.4 ± 0.066	3.15 ± 0.048	3.02 ± 0.065
SAETLSELIRTTLDAEK [FAS1]	2.78 ± 0.054	2.73 ± 0.046	2.84 ± 0.044	2.63 ± 0.053
SAGRLYACISSRPGQSG [RPS8A]	2.81 ± 0.095	3.07 ± 0.093	3.13 ± 0.088	3.03 ± 0.088
SAILLSETDKRQFLHEL [RPO31]	2.6 ± 0.069	2.49 ± 0.051	2.88 ± 0.087	2.63 ± 0.052
SALCILKEQELVLYDAE [BRR2]	2.47 ± 0.16	2.72 ± 0.12	2.25 ± 0.11	2.52 ± 0.1
SANPKKTTITRVEPETF [SWI3]	2.86 ± 0.065	3.06 ± 0.068	3.03 ± 0.052	2.95 ± 0.051
SAQSIASAKSVRSGVSK [YAR002W/NUP60]	2.88 ± 0.072	2.93 ± 0.092	3 ± 0.069	2.96 ± 0.057
SASNTAKSTPNTNPSPL [GAL11]	2.67 ± 0.044	2.87 ± 0.042	2.65 ± 0.038	2.9 ± 0.032
SASRAKNMPVIYNNIVS [RGR1]	2.42 ± 0.064	2.26 ± 0.064	2.31 ± 0.053	2.34 ± 0.047

Sequence	protein stability index (doa10∆)	protein stability index (pdr5∆)	protein stability index (san1∆)	protein stability index (ubr1∆)
SATLPNYEDVGRFLRVP [BRR2]	2.8 ± 0.087	3.1 ± 0.062	3.04 ± 0.048	3.01 ± 0.075
SAVLLETTLGEMAEKID [PRP8]	1.12 ± 0.13	1.55 ± 0.098	1.21 ± 0.2	1.65 ± 0.11
SAVVSSNASRRKLINYT [RPN4]	2.77 ± 0.11	2.53 ± 0.14	2.55 ± 0.069	3.26 ± 0.14
SCEVEEIGLLGGRYVYP [SNU114]	3.27 ± 0.092	3.04 ± 0.066	2.85 ± 0.065	2.8 ± 0.06
SCGYPAAKTRSYNWGAK [RPL37A]	2.21 ± 0.29	3.34 ± 0.12	3.1 ± 0.085	3.31 ± 0.12
SCLTFFQALDSEETQFK [ITC1]	2.73 ± 0.1	3.49 ± 0.13	2.7 ± 0.11	3.17 ± 0.15
SCQGNVIYRNSLYKVSF [YMR129W/POM152]	2.54 ± 0.064	2.76 ± 0.068	2.56 ± 0.064	2.71 ± 0.094
SCRNPEHTDVIDELIDT [YIL149C/MLP2]	2.68 ± 0.054	2.76 ± 0.061	2.58 ± 0.047	2.58 ± 0.035
SCTKCPQIVVPDAQNEL [DIS3]	2.17 ± 0.05	2.42 ± 0.04	2.48 ± 0.057	2.34 ± 0.059
SDAAKEPPGSNTSFSFT [YOR098C/NUP1]	1.58 ± 0.046	1.96 ± 0.048	2.33 ± 0.053	1.91 ± 0.045
SDAKEQHQSLSRSSSKN [ESC2]	2.85 ± 0.14	3.21 ± 0.14	3.26 ± 0.074	3.27 ± 0.11
SDAVMAEHSQNKIDQSL [YJL041W/NSP1]	3.08 ± 0.064	3.18 ± 0.044	3.08 ± 0.052	3.07 ± 0.056
SDDAAQFMKRFPMPYEN [ECM29]	2.96 ± 0.068	3 ± 0.14	2.9 ± 0.082	
SDEAIIPVNKRRGAHGS [SIR3]	3.03 ± 0.15	3.13 ± 0.13	3.04 ± 0.13	2.93 ± 0.18
SDKAQLNVVMKNLERLR [SMC4]	3.28 ± 0.099	3.46 ± 0.15	3.13 ± 0.11	2.72 ± 0.28
SDLRVLSGSISERIVDC [FAS1]	2.95 ± 0.14	3.45 ± 0.15	3.41 ± 0.087	3.26 ± 0.098
SDMQHIERLLKDLVTEN [PRE4]	1.63 ± 0.14	2.61 ± 0.13	2.31 ± 0.17	2.97 ± 0.15
SDSEIPPLLVYKWTQGI [PRP8]	2.3 ± 0.056	2.36 ± 0.057	2.26 ± 0.068	2.07 ± 0.074
SEEERKSSPISNEAAKP [YOR098C/NUP1]	2.94 ± 0.099	2.97 ± 0.099	3.07 ± 0.069	3.21 ± 0.071
SEFDSRVKAMEVDEKPT [RPT5]	2.77 ± 0.11	2.76 ± 0.089	3.08 ± 0.14	2.97 ± 0.062
SEIIDTNTSKQFQKARN [SRB8]	2.71 ± 0.12	3.01 ± 0.063	3.16 ± 0.056	2.92 ± 0.095
SEKGLLSATQFTQPALT [FAS1]	2.44 ± 0.061	2.65 ± 0.047	2.73 ± 0.039	2.57 ± 0.038
SEKRLDHFIHLRNLHMK [SNF12]	2.75 ± 0.051	2.73 ± 0.043	2.74 ± 0.052	2.62 ± 0.037
SELLGGTFKSTLDREYI [QCR2]	3.15 ± 0.093	3.17 ± 0.11	2.87 ± 0.089	3.1 ± 0.05
SERIVDCIIRLPVKWET [FAS1]	2.3 ± 0.089	1.97 ± 0.083	1.75 ± 0.12	2.62 ± 0.056

Reference: the supplement of paper PMC9732359
